Three molecules from patent US20240209086A1 (PETMEDIX, published 2024) can be followed below.

Numbering of substitutions follows the chain as printed.

In assay [1] the target is T1, canine CD20 on cells (HEK293, MDCK II, CLBL-1 or native B cells) (canine, UniProt Q3C2E2 1-297).
T1 construct: also called dCD20; cCD20
T1 chain: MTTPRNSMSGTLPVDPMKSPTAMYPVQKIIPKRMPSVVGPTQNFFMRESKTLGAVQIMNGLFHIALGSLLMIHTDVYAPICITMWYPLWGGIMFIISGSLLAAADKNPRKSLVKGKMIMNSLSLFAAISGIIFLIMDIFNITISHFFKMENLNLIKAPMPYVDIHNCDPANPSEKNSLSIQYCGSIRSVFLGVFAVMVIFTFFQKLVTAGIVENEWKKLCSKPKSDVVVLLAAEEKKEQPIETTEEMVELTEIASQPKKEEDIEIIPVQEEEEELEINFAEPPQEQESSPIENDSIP
In words: flow cytometry, canine CD20 HEK293 cells, FITC anti-canine IgG. How it is done: (§1) A CD20 binding screen was performed on candidate proteins produced from the canine CD20 immunisation as described in Examples 2 and 3. CHO cells supernatants containing candidate antibodies were diluted to 10 μg/ml in FACS buffer (PBS containing 3% FBS) and screened for their ability to bind canine CD20 expressed on cell surface. In brief, 1-2×10⁵ canine CD20-expressing HEK cells were incubated with candidate mAbs for one hour at 4° C., at a fixed concentration of 10 μg/ml followed by incubation with 5 μg/ml of FITC-conjugated anti-canine IgG secondary antibody (Bethyl Laboratories) for 1 hour at 4° C. Cells incubated with anti-canine IgG FITC secondary antibody and without primary anti-canine CD20 antibody, or with isotype control primary antibody, were used as negative controls. The data were acquired on either a Beckman Coulter CytoFLEX or a BD Accuri C6 Plus flow cytometer and analysed using FlowJo software.

Assay [2] addresses T1, canine CD20 on cells (HEK293, MDCK II, …). In words: flow cytometry, canine CD20-expressing HEK cells, 10 µg/ml. How it is done:
as §1

B1: PMX251 (monospecific anti-canine CD20, canine IgG-B, lambda C5) (antibody, V domains shown)
VH: EVQLVESGGDLVKPGGSLRLSCVASGFTFSSYHMSWVRQAPGKGLQWVAYINSGGSSTSYADAVKGRFTISRDNAKNTLYLQMNSLRAEDTAVYYCASFDYWGQGTLVTVSS
VL: SYVLTQLPSKNVTLKQPAHITCGGDNIGSKSVHWYQQKLGQAPVLIIYYDSSRPTGIPERFSGANSGNTATLTISGALAEDEADYYCQVWDSSANVFGGGTHLTVLG
Take B1: the binding result in assay [1] was “no binding (tested: 10 µg/ml)”.

B2: PMX244 (monospecific anti-canine CD20, canine IgG-B, lambda C5) (antibody, V domains shown)
VH: B1 VH with S31R, S57D, T58S, S59D, A97T, F99L
VL: B1 VL with V44I, S51R, S52R, S92R, A94G
For the molecule B2, in assay [2], the binding result is recorded as “binds”.

B3: PMX250 (monospecific anti-canine CD20, canine IgG-B, lambda C5) (antibody, V domains shown)
VH: B1 VH with N84T, A97T
VL: B1 VL
As to B3, the binding result in assay [1] is listed as “no binding (tested: 10 µg/ml)”.
